± gives the standard deviation of the averaged measurements.
Test: total protein half-life in vivo (active degradation + dilution); higher = more stable protein
[1] = E. coli NCM3722 delta-clpP delta-lon delta-hslV, growth: N-lim chemostat, doubling time 6 h
[2] = E. coli NCM3722 delta-clpP, growth: N-lim chemostat, doubling time 6 h
[3] = E. coli NCM3722 delta-hslV, growth: N-lim chemostat, doubling time 6 h
[4] = E. coli NCM3722 delta-lon, growth: N-lim chemostat, doubling time 6 h
[5] = E. coli NCM3722 delta-smpB, growth: N-lim chemostat, doubling time 6 h
[6] = wild type E. coli NCM3722, growth: C-lim chemostat, doubling time 3 h
[7] = wild type E. coli NCM3722, growth: C-lim chemostat, doubling time 6 h
[8] = wild type E. coli NCM3722, growth: C-lim chemostat, doubling time 12 h
[9] = wild type E. coli NCM3722, growth: N-lim chemostat, doubling time 6 h
[10] = wild type E. coli NCM3722, growth: N-lim chemostat, doubling time 12 h
[11] = wild type E. coli NCM3722, growth: P-lim chemostat, doubling time 6 h
[12] = wild type E. coli NCM3722, growth: P-lim chemostat, doubling time 12 h

| Sequence | total protein half-life in vivo [1] [h] | total protein half-life in vivo [2] [h] | total protein half-life in vivo [3] [h] | total protein half-life in vivo [4] [h] | total protein half-life in vivo [5] [h] | total protein half-life in vivo [6] [h] | total protein half-life in vivo [7] [h] | total protein half-life in vivo [8] [h] | total protein half-life in vivo [9] [h] | total protein half-life in vivo [10] [h] | total protein half-life in vivo [11] [h] | total protein half-life in vivo [12] [h] |
| --- | --- | --- | --- | --- | --- | --- | --- | --- | --- | --- | --- | --- |
| MCSIFGVFDIKTDAVELRKKALELSRLMRHRGPDWSGIYASDNAILAHERLSIVDVNAGAQPLYNQQKTHVLAVNGEIYNHQALRAEYGDRYQFQTGSDCEVILALYQEKGPEFLDDLQGMFAFALYDSEKDAYLIGRDHLGIIPLYMGYDEHGQLYVASEMKALVPVCRTIKEFPAGSYLWSQDGEIRSYYHRDWFDYDAVKDNVTDKNELRQALEDSVKSHLMSDVPYGVLLSGGLDSSIISAITKKYAARRVEDQERSEAWWPQLHSFAVGLPGSPDLKAAQEVANHLGTVHHEIHFTVQEGLDAIRDVIYHIETYDVTTIRASTPMYLMSRKIKAMGIKMVLSGEGSDEVFGGYLYFHKAPNAKELHEETVRKLLALHMYDCARANKAMSAWGVEARVPFLDKKFLDVAMRINPQDKMCGNGKMEKHILRECFEAYLPASVAWRQKEQFSDGVGYSWIDTLKEVAAQQVSDQQLETARFRFPYNTPTSKEAYLYREIFEELFPLPSAAECVPGGPSVACSSAKAIEWDEAFKKMDDPSGRAVGVHQSAYK | 3.62 ± 0.55 | 2.71 ± 0.25 | 2.84 ± 0.048 | 3.181 ± 0.025 | 2.55 ± 0.069 | 2.87 ± 0.069 | 4.97 ± 0.21 | 7.86 ± 0.95 | 2.69 ± 0.025 | 3.857 ± 0.0049 | 5.61 ± 0.3 | 10.4 ± 0.4 |
| MDAKQRIARRVAQELRDGDIVNLGIGLPTMVANYLPEGIHITLQSENGFLGLGPVTTAHPDLVNAGGQPCGVLPGAAMFDSAMSFALIRGGHIDACVLGGLQVDEEANLANWVVPGKMVPGMGGAMDLVTGSRKVIIAMEHCAKDGSAKILRRCTMPLTAQHAVHMLVTELAVFRFIDGKMWLTEIADGCDLATVRAKTEARFEVAADLNTQRGDL |  |  |  | 0.206 |  |  |  |  | 1.83 |  |  |  |
| MDFPQQLEACVKQANQALSRFIAPLPFQNTPVVETMQYGALLGGKRLRPFLVYATGHMFGVSTNTLDAPAAAVECIHAYSLIHDDLPAMDDDDLRRGLPTCHVKFGEANAILAGDALQTLAFSILSDADMPEVSDRDRISMISELASASGIAGMCGGQALDLDAEGKHVPLDALERIHRHKTGALIRAAVRLGALSAGDKGRRALPVLDKYAESIGLAFQVQDDILDVVGDTATLGKRQGADQQLGKSTYPALLGLEQARKKARDLIDDARQSLKQLAEQSLDTSALEALADYIIQRNK | 4.5 ± 0.14 | 5.14 ± 0.67 | 4.44 ± 0.056 | 4.579 ± 0.024 | 4.63 ± 0.38 | 3.14 ± 0.08 | 5.849 ± 0.0072 | 11.5 ± 0.9 | 4.46 ± 0.66 | 6.952 ± 0.057 | 5.75 ± 0.13 | 11.2 ± 0.6 |
| MDFPQRVNGWALYAHPCFQETYDALVAEVETLKGKDPENYQRKAATKLLAVVHKVIEEHITVNPSSPAFRHGKSLGSGKNKDWSRVKFGAGRYRLFFRYSEKEKVIILGWMNDENTLRTYGKKTDAYTVFSKMLKRGHPPADWETLTRETEETH |  | 6.54 | 5.12 | 7.11 ± 0.75 | 5.58 | 3.3 | > 8 | 10.2 | 6.09 ± 0.47 | 12.2 | 5.56 ± 0.21 | 15.6 |
| MDFSGKNVWVTGAGKGIGYATALAFVEAGAKVTGFDQAFTQEQYPFATEVMDVADAAQVAQVCQRLLAETERLDALVNAAGILRMGATDQLSKEDWQQTFAVNVGGAFNLFQQTMNQFRRQRGGAIVTVASDAAHTPRIGMSAYGASKAALKSLALSVGLELAGSGVRCNVVSPGSTDTDMQRTLWVSDDAEEQRIRGFGEQFKLGIPLGKIARPQEIANTILFLASDLASHITLQDIVVDGGSTLGA |  |  |  |  |  | 3.26 ± 0.27 |  |  |  |  |  |  |
| MDFSLTEEQELLLASIRELITTNFPEEYFRTCDQNGTYPREFMRALADNGISMLGVPEEFGGIPADYVTQMLALMEVSKCGAPAFLITNGQCIHSMRRFGSAEQLRKTAESTLETGDPAYALALTEPGAGSDNNSATTTYTRKNGKVYINGQKTFITGAKEYPYMLVLARDPQPKDPKKAFTLWWVDSSKPGIKINPLHKIGWHMLSTCEVYLDNVEVEESDMVGEEGMGFLNVMYNFEMERLINAARSTGFAECAFEDAARYANQRIAFGKPIGHNQMIQEKLALMAIKIDNMRNMVLKVAWQADQHQSLRTSAALAKLYCARTAMEVIDDAIQIMGGLGYTDEARVSRFWRDVRCERIGGGTDEIMIYVAGRQILKDYQNK [P0A9U8] | 6.36 ± 0.59 |  | 1.41 |  | 1.03 | 2.23 | > 8 | 2.25 |  | 2.165 ± 0.02 | 0.772 | 2.42 |
| MDHAIYTAMGAASQTLNQQAVTASNLANASTPGFRAQLNALRAVPVEGLSLPTRTLVTASTPGADMTPGKMDYTSRPLDVALQQDGWLAVQTADGSEGYTRNGSIQVDPTGQLTIQGHPVIGEAGPIAVPEGAEITIAADGTISALNPGDPANTVAPVGRLKLVKATGSEVQRGDDGIFRLSAETQATRGPVLQADPTLRVMSGVLEGSNVNAVAAMSDMIASARRFEMQMKVISSVDDNAGRANQLLSMS |  |  |  |  |  | 0.504 ± 0.13 |  | 3.33 ± 1.4 |  |  |  |  |
| MDHLPMPKFGPLAGLRVVFSGIEIAGPFAGQMFAEWGAEVIWIENVAWADTIRVQPNYPQLSRRNLHALSLNIFKDEGREAFLKLMETTDIFIEASKGPAFARRGITDEVLWQHNPKLVIAHLSGFGQYGTEEYTNLPAYNTIAQAFSGYLIQNGDVDQPMPAFPYTADYFSGLTATTAALAALHKVRETGKGESIDIAMYEVMLRMGQYFMMDYFNGGEMCPRMSKGKDPYYAGCGLYKCADGYIVMELVGITQIEECFKDIGLAHLLGTPEIPEGTQLIHRIECPYGPLVEEKLDAWLATHTIAEVKERFAELNIACAKVLTVPELESNPQYVARESITQWQTMDGRTCKGPNIMPKFKNNPGQIWRGMPSHGMDTAAILKNIGYSENDIQELVSKGLAKVED | 6.21 ± 0.21 | 4.41 | 4.77 ± 0.81 | 4.71 | 4.726 ± 0.00071 | > 4 |  | 13 |  | 8.76 | 6.27 |  |
| MDHRLLEIIACPVCNGKLWYNQEKQELICKLDNLAFPLRDGIPVLLETEARVLTADESKS [P0AAZ7] | > 8 | 5.82 ± 0.15 |  | 4.19 ± 0.043 | 4.65 ± 1.2 | 1.64 ± 0.1 | 4.73 ± 0.12 | 8.88 ± 1.5 | 3.05 ± 0.11 | 6.3 ± 0.69 | 3.69 ± 0.26 | 7.87 ± 0.7 |
| MDHSLNSLNNFDFLARSFARMHAEGRPVDILAVTGNMDEEHRTWFCARYAWYCQQMMQARELELEH | 2.86 |  |  |  |  |  |  |  |  |  |  |  |

Reference: the supplement of paper PMC11246515
